In the supplement of paper PMC12042874 one finds amyloid nucleation score data, which are given here for 139 substances.

± gives the uncertainty stated by the source.

A short description of the data set: amyloid nucleation score (Sup35N fusion, yeast selection) (log enrichment); library NNK2; higher = more nucleation; inactive = no reads after selection. In a few lines:
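Peptides of 20 random codons, each fused to Sup35N, were expressed in psi-negative yeast. Cells were induced with 100 μM copper sulfate for 24 hours and grown 7 days at 30°C on medium lacking adenine and uracil, and plasmid inserts before and after selection were Illumina-sequenced. Nucleation scores are DiMSum log enrichments of output over input reads, centred on the mode score of non-aggregating sequences, and sequences under 100 input reads were excluded.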
The substance VCACLNMTCVFFILTGNGVK came in with an amyloid nucleation score of 7.59 ± 0.039. As for RPVWDNWLTGFLGMPMWGKT, the figure is 0.112 ± 0.43; as for SRLKIFIPNVFL, -0.067 ± 1.1. Take SLFITASYYNFRG: the amyloid nucleation score turned out to be 3.62 ± 0.049. As for IFPEL, the figure is -1.11 ± 0.45; as for LWFITCNMSGHWLLTERR, 4.39 ± 0.064. Consider MTMFTCMWVNRER, for which the amyloid nucleation score worked out at 4.79 ± 0.057. Regarding TVGHDQASYMGFGSFYTSVF, the amyloid nucleation score was -0.538 ± 0.76. As for RVCMINSYLLVTRCVGDN, the amyloid nucleation score is 8.387 ± 0.028. Consider VEARKLYQCMCVVRC, for which the amyloid nucleation score was -0.143 ± 0.28. Turning to IATHHTDESAG, the amyloid nucleation score is -0.083 ± 0.79.

As for SVRAVRMWIMDRNAARRMSG, the amyloid nucleation score turned out to be 0.997 ± 0.17.

In turn, VGIGVAERCDSRWLL displayed an amyloid nucleation score of 0.886 ± 0.3.

Turning to VGGYDNLSILISTLQSSIFS, the amyloid nucleation score was -0.779 ± 0.37.

In turn, SLILDNVDEGQSFSMGVCLG registered an amyloid nucleation score of 0.462 ± 0.66. GFLLCVSGVYLGCLLVNSSI: the amyloid nucleation score came out at 0.488 ± 0.56. As for HKRFKEGLSG, the amyloid nucleation score was 0.047 ± 0.36. GDDDVVVDDQNLKCDGYTDL: the amyloid nucleation score amounted to 1.03 ± 0.24.

Consider WIFFHGGRMRTCYRDAVGEV, for which the amyloid nucleation score was -0.484 ± 0.36. In turn, LTNNHYIKPFRSRIRVMVMY had an amyloid nucleation score of 4.79 ± 0.069. As for MYRVLAICNRTVRKG, the figure is -0.562 ± 0.61; as for WFYLCMFGAYLWRVRFDIRK, -0.428 ± 0.34; as for FKAERSFLLSRYILKREGSQ, -0.972 ± 0.34. With SSYTLGFFRCNRFWCLCIDC, the amyloid nucleation score was -1.2 ± 0.56.

On to LGSVVSTPFCYSMFRTFKKH, for which the amyloid nucleation score worked out at 0.109 ± 0.27. NLHVHL: the amyloid nucleation score came out at 3.64 ± 0.056. QHVGDSWMSSVNLGVLRVRL came in with an amyloid nucleation score of 0.055 ± 0.35.

Substance VTRFLISYTRIGRMYSVGFV gave an amyloid nucleation score of -0.523 ± 1.

As for AMSECQHKMQWAAFSVFPGQ, the amyloid nucleation score was determined as 5.91 ± 0.089. As for LFRSHSCVCTLVKQ, the figure is -0.008 ± 0.46; as for DTFINWIWRGYGKWMCSGRR, -0.135 ± 0.39; as for FFKRSSFKMGSRITETRYRR, -0.728 ± 0.56. RSSSRASALTRYLSELGKKS came in with an amyloid nucleation score of 0.694 ± 0.39. Turning to VYTWNGRSWEYWTCPTLRNP, the amyloid nucleation score came to 0.371 ± 0.8. Substance PHRSPMGANHPERCLVPMLF showed an amyloid nucleation score of -0.134 ± 0.55.

ETHFVTKDLASSLGKLAHPY had an amyloid nucleation score of 8.848 ± 0.069. Take LNTNPARYLPGMFNPRSKYL: the amyloid nucleation score was -0.324 ± 1.1.

The substance DYYNRVISASVYSLGGCC yielded an amyloid nucleation score of 2.82 ± 0.075. As for IDSYLNTSKASRVPCDLRAL, the amyloid nucleation score turned out to be 0.67 ± 0.81.

In the case of AIPVYFVLLMSITPLQLVVM, the amyloid nucleation score amounted to 1.38 ± 0.15. Take SRERPHFPLLIPGENMIMLM: the amyloid nucleation score turned out to be 1.04 ± 0.1. As for CRNCLLGHLRLVTHHVRILY, the entry is “inactive”.

Take VNSLYCM: the amyloid nucleation score is -0.447 ± 1.1.

With PYSVMTFEIT, the amyloid nucleation score came out at 0.486 ± 0.33. Turning to SISIACCA, the amyloid nucleation score was found to be 6.991 ± 0.031.

Take KNNSFWGISLTGLLGYIYTR: the amyloid nucleation score was -0.627 ± 1. MDGVHFVRYQM came in with an amyloid nucleation score of 0.181 ± 0.45. The substance KAFFFPQFCCIYGLGM registered an amyloid nucleation score of 8.903 ± 0.035. The substance RRRIRVCGSWFSGYN displayed an amyloid nucleation score of -0.527 ± 0.5. As for HRDGLPVVTL, the figure is 0.034 ± 1.1; as for KLRFYIYCFILLKCMTGART, “inactive”; as for IAHCCFGQF, 7.634 ± 0.074.

RWCSLDSQSDYSSM gave an amyloid nucleation score of -0.681 ± 1. In turn, HRRCMFQNTAMRHRQWDA came in with an amyloid nucleation score of 0.841 ± 0.44.

Take YGSVR: the amyloid nucleation score was 0.669 ± 0.37.

The substance VSRMLSVMSMTTRMFLPYTS had an amyloid nucleation score of 0.152 ± 0.61. As for QVLLFQWLSGDYQMIKMMRW, the figure is -0.207 ± 0.45; as for ICTALGGWWSKEVMSADMFL, 0.811 ± 0.67. Turning to GIFISISPPIGESSGNLQLN, the amyloid nucleation score entry is “inactive”. Substance WARNEIYRRSTNKWPPMVRG yielded an amyloid nucleation score of -0.014 ± 0.76. As for MNHTDGQHCFVSWRCLDGWR, the figure is 0.705 ± 0.66; as for NGVDMVVAAGLSGCRWGRIR, 0.249 ± 0.39; as for DTLCYNRMWFLPGLKMDLGG, 7.62 ± 0.054. In turn, VNLTSFYLITDCTLNGQQWR showed an amyloid nucleation score of 8.654 ± 0.052.

The substance SELFQLIGILHSNLFGIYMF returned an amyloid nucleation score of -0.427 ± 0.74. Take FTVGSMSGDFWLLCWYLR: the amyloid nucleation score turned out to be 3.09 ± 0.15.

TITCLFKVRRCVYV gave an amyloid nucleation score of -0.325 ± 0.55. TYFYSWYGKYPADSRFY: the amyloid nucleation score is -0.488 ± 1. GCHSFLPGYFTWNYDSDNYF: the amyloid nucleation score result is “inactive”.

For the substance HGASSVAFNLLLSCVSWVGC, the amyloid nucleation score is 7.468 ± 0.04. On to ARFWWALGNLCERIAGNDWV, for which the amyloid nucleation score was 0.216 ± 0.44. Regarding MYMARCKASTVSDYQNS, the amyloid nucleation score was -0.393 ± 0.55.

RLKLMQFLHLAPIVPAILCC showed an amyloid nucleation score of 0.444 ± 0.35. Substance ACAMFSKRSHSITSVVMGYG had an amyloid nucleation score of 0.29 ± 0.48. Consider LSKINVFWKSSTALQCLAPE, for which the amyloid nucleation score is -0.322 ± 0.55.

For LHAIHSFDWPTSLIVYHP, the amyloid nucleation score result is “inactive”. For the substance FLNHE, the amyloid nucleation score entry was “inactive”. NSFTLKCSKGVGYKALHLGT displayed an amyloid nucleation score of 2.9 ± 0.097. For YFLGAFTYVFCACHSFCRYW, the amyloid nucleation score was determined as 1.86 ± 0.15. TLVLFGTLISMLQL: the amyloid nucleation score worked out at 6.24 ± 0.073. HRMRVSIGATYVTALYQVKD: the amyloid nucleation score is 3.18 ± 0.095. LVIALSFCY had an amyloid nucleation score of 3.57 ± 0.069. FYESKMGVMINFNWFYDTTS had an amyloid nucleation score of 6.88 ± 0.069. Consider NIRNRSVNDLIRRDAYRLAL, for which the amyloid nucleation score is -0.175 ± 0.8.

Take ILFLVNLFSLSIANVFR: the amyloid nucleation score entry was “inactive”.

For PFSWH, the amyloid nucleation score was 1.38 ± 0.14. With SMICGFKLASHSVG, the amyloid nucleation score is -0.65 ± 0.45. The substance YYLICST came in with an amyloid nucleation score of 0.023 ± 0.47. As for RISSSGRP, the figure is 2.03 ± 0.082.

For the substance LYTSSATHLIRP, the amyloid nucleation score result is “inactive”. Turning to CLCCYTIM, the amyloid nucleation score is 7.381 ± 0.044.

TLSSYLVALNQRGAGSLWYV came in with an amyloid nucleation score of 0.825 ± 0.8. FGLLYYAYNRFMLARINGHT: the amyloid nucleation score was -0.261 ± 1.1.

As to FNLAPLMVIMPGIMGWGLLG, the amyloid nucleation score was determined as 1.67 ± 0.16. As for FFYSGRGYTDKWHMGSLPRC, the figure is -0.964 ± 0.76. HWTSFKSGNALGMCETI: the amyloid nucleation score came out at 0.076 ± 0.41.

In turn, HVNGL returned an amyloid nucleation score of 0.098 ± 0.5. As for WYNCSALWESLMFNGLQAVW, the amyloid nucleation score was -0.268 ± 0.48. With NKCQMSCNRRYEDMGYDRCM, the amyloid nucleation score is 0.038 ± 0.53. Regarding GTTCDIEDVPCMLVVDTLLV, the amyloid nucleation score came to 1.42 ± 0.16. As for LWVGQLTTY, the figure is 0.199 ± 0.45; as for LNKNLLEKCLYRDLLLSVFW, -2.32 ± 1.1; as for STMAFWSYHGWCYGVLIL, -0.898 ± 0.61.

PCQCKV: the amyloid nucleation score was 4.16 ± 0.072.

The substance FNHLRSARILPGFFSFSRFK came in with an amyloid nucleation score of -1.35 ± 0.54.

For the substance VTSLG, the amyloid nucleation score is -0.249 ± 0.25. As for KLNLGGCLMSRVYC, the amyloid nucleation score was determined as 0.345 ± 0.16. In the case of KRGSAEFNQLDHYECTRYEC, the amyloid nucleation score result is “inactive”. Consider FAFYRSFCWRVTWFSWVGGS, for which the amyloid nucleation score entry was “inactive”. As for YEVSIIFCRLFSILIRPGTS, the figure is -1.1 ± 1.1; as for MLWVYWLGCHVRSYNLGYLR, -0.255 ± 0.63. IYRDPHNYCM displayed an amyloid nucleation score of -0.751 ± 1.1. As for EWRGMLLVSTRLVKDIVR, the figure is -0.553 ± 0.35. VMQVVLGNMLMRRSQVLYNW showed an amyloid nucleation score of -0.62 ± 0.41. As for YFNIYAVEIVLGIRLFNNVD, the figure is 1.99 ± 0.067; as for LDSSYY, “inactive”. Take RFDHMSYRSCPRESEFEVTC: the amyloid nucleation score result was “inactive”.

On to IIKLRFFWYYNLLNQYLGFR, for which the amyloid nucleation score entry is “inactive”.

On to SFTGL, for which the amyloid nucleation score is -0.684 ± 0.44. For the substance LNVKFK, the amyloid nucleation score is -0.966 ± 1.1. As for GSSTMWNVLVAWLRTIL, the entry is “inactive”.

Substance LLPSHISASNHIWWLKTS returned an amyloid nucleation score of 0.307 ± 0.31. In the case of GQSLLLEPSGWVSSDIKMKG, the amyloid nucleation score was found to be 0.153 ± 0.79. Regarding TSRPMALQGYSGNSDDVTYV, the amyloid nucleation score turned out to be 0.445 ± 0.65. As for EPKFCGMDNHEL, the amyloid nucleation score is 3.78 ± 0.14. As to NLQRFSQPKIHRPNTMPLNV, the amyloid nucleation score entry was “inactive”. Take MRTRWAVITKMFRRGWEVKV: the amyloid nucleation score was 0.753 ± 0.67. RGSVNCGLFLSRKSDASGRG: the amyloid nucleation score is 0.234 ± 0.57. The substance IQINLLNSGYSFRLRASKFS had an amyloid nucleation score of 2.89 ± 0.075. Regarding FDLAMGVSLVKRLRLVLCLS, the amyloid nucleation score was -1.12 ± 0.64. With YSNRVTLMSYDIN, the amyloid nucleation score entry was “inactive”. Turning to SQILTMWYLVIYYMSNRFGG, the amyloid nucleation score entry is “inactive”. As for TWESSV, the figure is 0.613 ± 0.2.

On to VGLACSLS, for which the amyloid nucleation score was -1.07 ± 0.78. In the case of VELQP, the amyloid nucleation score came out at 1.18 ± 0.29. As for GGDAQACVGHLSHKLCWLSV, the figure is 1.65 ± 0.16. On to YVITSSPSLYACICSGVSVR, for which the amyloid nucleation score stood at 4.87 ± 0.1. As for LYVCPSASWESCPGGIKRMG, the entry is “inactive”; as for LIGEVAYFICHFSKVVARLF, 2.06 ± 0.075.
